According to the DeepSol protein solubility set:

assay: soluble on expression in E. coli; label from the status in PepcDB or PDB records

| Sequence | soluble on expression in E. coli |
| --- | --- |
| MGSDKIHHHHHHMPQFSPSYSFPVQIYYEDTDFSGVVYHPNFLKYFERAREHVIGAEQLRNLWQQQQLGFAVYRSDMLCHEGVEFADIIDIRTKFYFESKYRTVWHQEIWRPNGKKPAVTATIEMVCMNQARQLAPMPAELITQLSLGM | not soluble |
| MFFKQFYEDNFSQASYLIGCQRTGEAMIIDPIRDLTKYLKVADKEGFTITKAAETHIHADFASGIRDVANKLNASIYVSDEGKDEFNYKNMPKQTHFVKHQDIIYLGKIKLEVLHTPGHPPESISFLLTDEGGGSSIPMGLFSGDFIFVGDVGRPDLLEKAVNVEGSTKIGAKQMYQSIQFAATLPDYIQIWPGHGAGSPCGKALGSLPTTTLGYEKINNWAFNVKDETSFIETLTLNQPAPPHHFSQMKKINQFGMQMYQPYNVYPSSSNTQTAFDLRSKEAFHGGHMHGTINIPFNKTFINQIGWYLDYDLEHHHHHH | soluble |
| MGSDKIHHHHHHMDFELDDGWDVYPIYGNTNKAFMGKKNHQRLFLKRNASPFLAALSMEEITPRLIWTKRISSGDTLTAQEWLNGQTLTKQQMRLPEVAHLLARVHNSELLHRMLRKVGGQSVRPQDFIQQYLQDLPDDLRHHPLMARVLDELRGTAPTLPATDYRVCHGDLNHKNWLLSDRQQLYLVDWDSARFADPASDISMLLCEYVPLSDWQQWLSEYGETMTTALRTRVVWYAKINLLLNIKDNYYRNQYHQMNHEIIFLEELSQYEV | not soluble |
| MRPVYFLSDFGLEDPYVAVVKAVLAERAPGPAVVDLAHALPPQDLRRAAYALFEALPYLPEGAVVLAVVDPGVGTARRAVAALGRWTYVGPDNGLFTLAWLLDPPRRAFLLEPPRPRPKAALPGWAPGEATFHGRDVFAPAAAHLALGLPPEGLGPEVPVETLARLPLALTEGPEGEVLTFDRFGNAITTLLRAPVGGFVEVGGRRVPVRRTFGEVPEGAPVAYLGSAGLLEVAVNRGSAREALGLKEGMPVRLL | soluble |
| MAHHHHHHMLQNMSNILDRTCWSCFFFFLKRKYSYMRRGTSTYPTTGCPLKKHEGGSHCPRARNWTASAGDIVGNGRRAEVGLARLKS | not soluble |
| MASFIPNLPSWAKHVDLKFRSALVLSQLFTKSWGHPDVIKQMAKYRRDVMSKRLVMDYVKELNPKIDIVKKYSKNGVTSYEGFFASPHATLFPNHMPGNVGRAHFRAYLPQKPGPVCIHLAGTGDHSYFRRHYLLVDDMLKDGVGSILIQNPFYGDRKPPNQFRSSLENVTDLFVMGAALIAECNHLFNWSETLGYGPFAISGVSMGGFMAQLAGSNSQRPISIVPILAWTTASPSYTEGAISPAVNYSLLQKQLEDPHYVDKIRRIPNQNWLDKMREMTARNGDSEAKNMMRILMDDFTSLEFYPTPIDTSLCHVFLADQDQYVLRNQGTPTYQQLWPNVTVEMMEGYGHVTAYLSKHDLWRRRITELLRRQQQKTI | not soluble |
| GSHMAKEEIIWESLSVDVGSQGNPGIVEYKGVDTKTGEVLFEREPIPIGTNNMGEFLAIVHGLRYLKERNSRKPIYSNSQTAIKWVKDKKAKSTLVRNEETALIWKLVDEAEEWLNTHTYETPILKWQTDKWGEIKADYGRK | soluble |
| MMAKDFYSAIEDRRSIYAISKEQVVSDEKIQEVIYHAVKHTPSAFNSQSARVVVLLGEQHDKLWDITKETLRKIVPENNFAPTEEKMNAFKSGYGTVLYFEDSEVVESLQANFALYKDNFPTWSQQSSGMLQFAIWTALEIEGFGATLQHYNPLIDEEVRKEWDVPANWKLIAQMPFGKPVVQAGEKEFQPLENRVKIYK | not soluble |
| MGTIKIVTDSSITIEPELIKALDITVVPLSVMIDSKLYSDNDLKEEGHFLSLMKASKSLPKTSQPPVGLFAETYENLVKKGVTDIVAIHLSPALSGTIEASRQGAEIAEAPVTVLDSGFTDQAMKFQVVEAAKMAKAGASLNEILAAVQAIKSKTELYIGVSTLENLVKGGRIGRVTGVLSSLLNVKVVMALKNDELKTLVKGRGNKTFTKWLDSYLAKNSHRPIAEIAISYAGEASLALTLKERIAAYYNHSISVLETGSIIQTHTGEGAFAVMVRYE | soluble |
| MICHQCPDRHDSLEEETMNAYSPPTLLQLARQKLLREEALAISALKDLPRELLPEMFEEAFTDECTKTLRAMIPMWPFPCLPVGTLIKNPNLETLKAVLEGLDILLAPKVRSSRCKLRVLNLRNEHHEFWRIWAGSHEDECLPQLTQKQPVENSPDCGVKKHLQVTTDFELTKGRLDESATYLLQWAEQRKDSIHLCCRKLQIQGLSKDAFIEIFKIIDANCVQELELSCIWEEELPFLNPYLRQMKNLLTLKLDDITEVTMDGDDLFDEKKRRKLISQLFSFYCLQNLYVDGTFAEGNMIECLRYLKKPLETLCLRYCFLSQTDLDYLPHCLNICKLKHLSLSYIYLFNLFLEPLGILLERVRDTLQTLELQLCGLTDRHFSVLLPALSQCSHLTKINFYENTISLPVLKQLSYHTANLSQLTQEQYPAPQECYDNMRGVETHRLGNICTELLDILRAKRQPERVAFATSRCIKCRGFLVYDLETQRCFFQH | not soluble |
| MGSDKIHHHHHHMSGAKVISVMNWKGGVGKTTMTHHLGTGLHMLTKEERLEYLGSEKMPRILFVDNDAQCNLSISCLHVEKYEDLVYKQNIPTIYDLYKLFICNESPVVDMHNYIIKNQVRMDNRRIFMGMDLLPAHQELVYLDMNIAMNSRASFQSGLISKEIYKYQYLNDILEPVCSDYDYIFIDCPPNLGYTTLNALYASEYCLIPTGLDHLSSYGIASLLKEIDRLNTEFATAVPDHPMIEVVGIVANNVEENREAPKRSQKLIRERLQDSYHELMFEPYLTRGDGIPNASEQGYPVYADRSANALKQGDLLLGILREFLDRI | not soluble |
| MTELPLQFAEPDDDLERVRATLYSLDPDGDRTAGVLRDTLDQLYDGQRTGRWNFDQLHKTEKTHMGTLVEINLHREFQFGDGFETDYEIAGVQVDCKFSMSQGAWMLPPESIGHICLVIWASDQQCAWTAGLVKVIPQFLGTANRDLKRRLTPEGRAQVVKLWPDHGKLQENLLLHIPGDVRDQIFSAKSSRGNQHGQARVNELFRRVHGRLIGRAVIATVAQQDDFMKRVRGSGGARSILRPEGIIILGHQDNDPKVANDLGLPVPRKGQVVAARVVPADEGDQRQTAEIQGRRWAVAVPGDPIVEAPVVPRKSAE | soluble |
| MIAIVAGNSAGVSRVANQPLEHEPSYWAATAEIEQPSPALEHDLDVDVAIIGAGYTGLSTAYHLKKDHGITATVVEANRIGWGCSGRNGGFAMIGVGKDTYNAWISKVGLEQARKTFEFGRDAVRTLRTVLQENNINAASGNEGFLLTAHRRARISELIETQRQLKHYFGFDTEYLDAHDVRTHYLSGTQIFGALHYPEHFPIHPMRYAQGLGRRVRQLGVPIYENSPVNTWRRAGRLHELLTPRGVVRAKKVVIATNGYTPDGLHPIVRGRLMNVLSNIVVTAPLSEGQLAATRWQTHKMVVDTRNLRSYFRLLEDNRIMFGARGGISDTAASRATMKAWLLTQLAKQFPGLGAIGADYFWQGWVAIPRDKGPHIHVADNGSVAYWLGCTGTGVAMSTHAGKLLADSLATERRPDVPALVGAPLPRYEIPALRKLYQRAAYSYFYLKDEFLLEHHHHHH | not soluble |
| MAILIPASFGRLTITSRAQVRVRVSASANQRTIRRDSVDWVKETSSFFEEDKRPIMLFDGVCNLCNGGVKFVRDHDRNRSIRFEALQSEAGKKLLLRSGRAPDDISSVVLVENDRSYIKSEAVLKIMKYIDLPFPQLAFFLQFAPLFVRDFLYENVANNRYAMFGRSDSCEL | soluble |
| MTDIPHDHPRYESLLAREKVAAGVKMGITSIQGLIAQGRGESFDYLIGERSTESALYAERAAVAALLLAENPVISVNGNVAALAPDKVVTLADITGARIEVNLFHRTDTRVHLIIEQLKASGAAEVLGKNPDASLELSHDRRLVSSKGIYTADVVLVPLEDGDRCEKLVEMGKTVITIDLNPLSRTSKTATISIVDNLTRALGNMAKFAQEMKKERKEELVKLITTYDNKRTLSEAISEIQEHLKTMAAETGLEHHHHHH | soluble |
| MAHHHHHHMEYDKEKMESLVSKVKEKFGKKVEIVNLKLDVKMPLFEIFLQASIHTQIKIFYARGRTLQYRLPPVFWTRCKILKENKILQEKYGGECAPGLFPQYDEYNIMQIMTECVYNDKYNFYVYDVNLEWENLCALTPENRELRKIVHQNVHVPTRLAVIKAFEQGVEDFRDVIREEYLIMLREQRKLKENKKYKF | not soluble |
